Source: paper PMC10801813, “In silico protein interaction screening uncovers DONSON’s role in replication initiation” (Science (New York, N.Y.), 2023)
Changes are numbered by the printed parent chain. In names and notes the source's numbering stands. Blank lines part the entries; values can stand above or below the binder they belong to.

Assays:
[1] = target: T1, Recombinant Xenopus GINS (preparation of ref. 54, Sf9 expression) (Xenopus laevis, UniProt Q7ZT47 1-196; Q7ZT46 1-185; Q7ZT01 1-210; Q7ZT48 1-221); assay: co-IP; purified FLAG-DONSON, GINS and TOPBP1^1−530 mixed, each 0.5 μM in IP wash buffer, 15 min room temperature; anti-FLAG beads 30 min room temperature; immunoblot (fig. S11B, lanes 22 to 24); conditions: both partners purified
T1 construct: PSF1 subunit of Xenopus GINS; PSF2 subunit of Xenopus GINS; PSF3 subunit of Xenopus GINS; SLD5 subunit of Xenopus GINS; also called purified GINS; source: Sf9 expression, purified; copies: + + +
T1 sequence (looked up) 1: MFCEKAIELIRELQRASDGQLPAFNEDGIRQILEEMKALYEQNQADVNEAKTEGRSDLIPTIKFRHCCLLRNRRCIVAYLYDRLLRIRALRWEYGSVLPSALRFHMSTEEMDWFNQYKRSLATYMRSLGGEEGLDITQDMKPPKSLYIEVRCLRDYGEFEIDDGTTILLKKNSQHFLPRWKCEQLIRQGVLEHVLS
T1 sequence (looked up) 2: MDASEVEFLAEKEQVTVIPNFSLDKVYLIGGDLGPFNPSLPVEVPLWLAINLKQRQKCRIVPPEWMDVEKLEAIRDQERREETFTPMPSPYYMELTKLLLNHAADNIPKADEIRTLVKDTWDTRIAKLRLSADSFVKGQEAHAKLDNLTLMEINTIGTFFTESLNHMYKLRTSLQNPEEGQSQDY
T1 sequence (looked up) 3: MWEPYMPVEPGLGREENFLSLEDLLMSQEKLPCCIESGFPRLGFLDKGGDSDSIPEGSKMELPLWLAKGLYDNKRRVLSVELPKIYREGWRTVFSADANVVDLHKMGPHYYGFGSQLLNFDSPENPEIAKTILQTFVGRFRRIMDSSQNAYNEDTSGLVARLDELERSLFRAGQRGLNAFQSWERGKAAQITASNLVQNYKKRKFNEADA
T1 sequence (looked up) 4: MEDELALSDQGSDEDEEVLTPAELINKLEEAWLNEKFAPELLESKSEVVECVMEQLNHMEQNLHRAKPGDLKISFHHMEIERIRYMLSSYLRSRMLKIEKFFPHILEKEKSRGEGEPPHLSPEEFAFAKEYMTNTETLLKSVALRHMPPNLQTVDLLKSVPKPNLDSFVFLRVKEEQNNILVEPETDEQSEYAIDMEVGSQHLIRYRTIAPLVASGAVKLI

[2] = target: the molecule itself; assay: mass photometry; Refeyn TwoMP; FLAG-DONSON diluted to 200 nM in egg lysis buffer (10 mM HEPES-KOH pH 7.7, 50 mM KCl, 2.5 mM MgCl2, 250 mM sucrose), 2 μL mixed into an 18 μL droplet of PBS

- binding result [1]: binds
B1: Recombinant FLAG-tagged DONSON, wild type (natural protein, Xenopus laevis, UniProt Q5U4U4 1-579, looked up)
chain: MAELLPGYSPSFKKPSEILRLSRRRSRSEASKTGLSPFSPGDVIKRVPGLRPFSPGPNKGAGVKRRNPFASLENTVCSPVKRRAETVAEYGAASLEPRALSAVRPSCLGQDSPEPPQFNSVEDVIWGDPLAADADPLVKTESPEKPAPACEIPKGSVTFPADWSLKTRLLFTSSHSFSWADHLKAQEEAQGLVMQCRATAVNLPHSIQEPKLSTDLRCAFQQSLVHWIHPSLPWVQLFPRIGVDRKMAGKNTPWSQDESLQQVLMSEWALSFTSLYNLLKAKLCPYFYVCTYQFTVLFRAAGLAGSDVITAVMSPTTRGLREAMKNEGITFSQPLVEDDTGKKQKKPEAASQGDINPEKENGTAEADEASDESDEDESFSWLEEMGVEDKIKKPDSISIKLRKEKNEVKLDHKPESVVLVKGTNTFTLLNFLINCKSIVAAAGLQAGLPPTLLSPVAFRGATMHALKARSVNVKTRVNSGYKDQFSLEITGPIMPHSLHSLTMLLQSAQRGSFSAGLYTHEPTAVFNTPIHSQAVKEISADLQNCGLHPCTVEQLTQVNELGKLSLRHLEMTDYRYTWK
notes: Xenopus DONSON (Downstream Neighbor of SON); also called rFLAG-DONSON; FLAG-DONSON; source: E. coli Rosetta (DE3) pLysS, purified (Glutathione Sepharose, PreScission cleavage, Superdex 200); not shown: GST, N-terminal, cleaved
- stoichiometry N [2]: 2

- binding result [1]: binds
B2: Recombinant FLAG-tagged DONSON N430A (natural protein, Xenopus laevis, UniProt Q5U4U4 1-579, looked up)
chain: B1 chain with N430A
notes: Xenopus DONSON with N430A; source: E. coli Rosetta (DE3) pLysS, purified (Glutathione Sepharose, PreScission cleavage, Superdex 200); not shown: GST, N-terminal, cleaved
